Experimental data: US20220363718A1 (Bicycle, published 2022)
Blank lines part the entries; values can stand above or below the binder they belong to. *1 amine or outer side, *2 acyl side, *3 side chain or, on linkers, in order; H or OH if unused. Bridges are numbered along the chain shown (N, C = ends). Where no end group is shown, it is not given here. [ ]: non-standard residue; d: D form. Phe(4-OMe) = 4-methoxy-phenylalanine (4-MeOPhe) = O-methyl-tyrosine, COc1ccc(C[C@H](N[*:1])C(=O)[*:2])cc1; TATA = O=C(CC[*:1])N1CN(C(=O)CC[*:2])CN(C(=O)CC[*:3])C1; Abu(4,4,4-F3) = N[C@@H](CC(F)(F)F)C(=O)O

Target: T1, Biotinylated human TSLP (human, biotinylated)
T1 construct: also called hTSLP; thymic stromal lymphopoietin
Assay: SPR, biotinylated hTSLP on streptavidin chip

T1 sequence (chain, as listed by the source limits assumed): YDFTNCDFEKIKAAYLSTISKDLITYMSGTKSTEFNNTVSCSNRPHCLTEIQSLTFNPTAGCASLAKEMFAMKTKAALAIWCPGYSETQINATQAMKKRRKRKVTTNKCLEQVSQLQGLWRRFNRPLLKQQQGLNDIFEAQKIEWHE

B2: Example 143 (peptide)
peptide: CQWLEDCWRGXC
modifications: N-term acetyl; CQWLEDCWRG[3-BrPhe]C as printed; 3 Cys on TATA
Kd: 750 nM

B3: Example 102 (peptide)
peptide: CQWLEDCWXGFC
modifications: not fully specified; CQWLEDCW[Cit]GFC as printed; 3 Cys on TATA
Kd: 170 nM

B4: Example 117 (peptide)
peptide: RENCRWLDDCWQGFCA
modifications: linker 4-10-15 via TATA
Kd: 250 nM

B5: Example 104 (peptide)
peptide: CQWLEDCWXGFC
modifications: not fully specified; N-term acetyl; CQWLEDCW[Cit]GFC as printed; 3 Cys on TATA
Kd: 180 nM

B6: Example 142 (peptide)
peptide: Ac-CQWLEDCWRG[Phe(4-OMe)]C
modifications: linker 1-7-12 via TATA
Kd: 710 nM

B8: Example 105 (peptide)
peptide: CQWLXDCWRGXC
modifications: not fully specified; N-term acetyl; CQWL[3-ClPhe]DCWRG[4-FPhe]C as printed; 3 Cys on TATA
Kd: 180 nM

B10: Example 130 (peptide)
peptide: CQWLEDCWRGXC
modifications: N-term acetyl; CQWLEDCWRG[3-CNPhe]C as printed; 3 Cys on TATA
Kd: 400 nM

B11: Example 131 (peptide)
peptide: CQWLEDCWXGFC
modifications: N-term acetyl; CQWLEDCW[Can]GFC as printed; 3 Cys on TATA
Kd: 400 nM

B14: Example 138 (peptide)
peptide: ACFWLEDCWRGYCETA
modifications: linker 2-8-13 via TATA
Kd: 520 nM

B15: Example 118 (peptide)
peptide: CQWLQDCFRGXC
modifications: N-term acetyl; CQWLQDCFRG[4-FPhe]C as printed; 3 Cys on TATA
Kd: 250 nM

B17: Example 39 (peptide)
peptide: CQWLFDCWRGXC
modifications: N-term acetyl; CQWLFDCWRG[4-FPhe]C as printed; C-terminal -COOH; 3 Cys on TATA
Kd: 21 nM

B18: Example 126 (peptide)
peptide: CAWLEDCWRGXC
modifications: not fully specified; N-term acetyl; C[dA]WLEDCWRG[4-FPhe]C as printed; 3 Cys on TATA
Kd: 310 nM

B19: Example 57 (peptide)
peptide: CQWIEDCWRGXC
modifications: N-term acetyl; CQWIEDCWRG[4-FPhe]C as printed; 3 Cys on TATA
Kd: 51 nM

B20: Example 43 (peptide)
peptide: CQWLFDCWRGXC
modifications: not fully specified; N-term acetyl; CQWLFDCWRG[4-FPhe]C as printed; 3 Cys on TATA
Kd: 30 nM

B23: Example 145 (peptide)
peptide: CQXLEDCWXGXC
modifications: N-term acetyl; CQ[ButG]LEDCW[ButG]G[4-FPhe]C as printed; 3 Cys on TATA
Kd: 900 nM

B25: Example 100 (peptide)
peptide: Ac-CDWLEDCWRGFCTTS
modifications: linker 1-7-12 via TATA; not fully specified (C-terminus)
Kd: 160 nM

B26: Example 136 (peptide)
peptide: ACEWLEDCWKGFCHSE
modifications: linker 2-8-13 via TATA
Kd: 520 nM

The remaining binders from weak to strong by Kd, led by results:

Kd: 860 nM
B9: Example 144 (peptide)
peptide: CWWLXDCWRGXC
modifications: N-term acetyl; CWWL[3-ClPhe]DCWRG[4-FPhe]C as printed; 3 Cys on TATA

Kd: 600 nM
B24: Example 141 (peptide)
peptide: ACDWLDDCWKGFCA
modifications: linker 2-8-13 via TATA

Kd: 490 nM
B7: Example 135 (peptide)
peptide: CQWLEDCWRGXC
modifications: N-term acetyl; CQWLEDCWRG[2ThienylA]C as printed; 3 Cys on TATA

Kd: 380 nM
B22: Example 128 (peptide)
peptide: CQWLEDCWRGFCDTSTHS
modifications: linker 1-7-12 via TATA; not fully specified (C-terminus)

Kd: 300 nM
B13: Example 125 (peptide)
peptide: ACNWLEDCWHGFCHEE
modifications: linker 2-8-13 via TATA; not fully specified (C-terminus)

Kd: 200 nM
B1: Example 111 (peptide)
peptide: Ac-CQW[Abu(4,4,4-F3)]EDCWRGFC
modifications: linker 1-7-12 via TATA; not fully specified (C-terminus)

Kd: 160 nM
B12: Example 101 (peptide)
peptide: ACEWLEDCWRGFCA
modifications: linker 2-8-13 via TATA; not fully specified (C-terminus)

Kd: 9.9 nM
B21: Example 23 (peptide)
peptide: CQWLENCWRGXC
modifications: not fully specified; N-term acetyl; CQWLENCWRG[4-FPhe]C as printed; 3 Cys on TATA

Kd: 6.7 nM
B16: Example 19 (peptide)
peptide: CHWLEDCWRGXC
modifications: N-term acetyl; CHWLEDCWRG[4-FPhe]C as printed; 3 Cys on TATA
